Data as given in publication PMC6127989, “Cytosolic GAPDH as a redox-dependent regulator of energy metabolism” (BMC Plant Biology, 2018).

Legend:
Settings in all cases: both partners purified
[1] = biological target: T1, reduced recombinant GapC1 (cytosolic NAD-dependent glyceraldehyde-3-phosphate dehydrogenase) from A. thaliana (A. thaliana, UniProt P25858 1-338); assay: reflectance interferometry (RIf); VDAC3 in a polymer-supported DOPC membrane on the chip; GapC1 pre-treated with 2 mM DTT (reduced) injected at different amounts in a flow chamber; rinsing with HBS buffer; association and dissociation phases fitted separately; protein-free lipid membrane as negative control
T1 construct: GapC1, cytosolic NAD-dependent glyceraldehyde-3-phosphate dehydrogenase, Arabidopsis thaliana, At3g04120; Used as analyte on VDAC3 (pre-treated with 2 mM DTT) and immobilised via NHS in buffer with 2 mM DTT for Trx-h3; also called reduced GapC1; GAPDH; source: desalted before use; pre-treated with 2 mM DTT

[2] = biological target: T2, oxidized recombinant GapC1 from A. thaliana (pretreated with 0.5 mM H2O2 + 0.5 mM GSH) (A. thaliana, UniProt P25858 1-338, oxidized by pretreatment with 0.5 mM H2O2 + 0.5 mM GSH; modified residues not stated for this sample); assay: reflectance interferometry (RIf); VDAC3 in a polymer-supported DOPC membrane on the chip; GapC1 pre-treated with 0.5 mM H2O2 + 0.5 mM GSH (oxidized) injected at different amounts in a flow chamber; rinsing with HBS buffer; association and dissociation phases fitted separately; protein-free lipid membrane as negative control
T2 construct: GapC1, cytosolic NAD-dependent glyceraldehyde-3-phosphate dehydrogenase, Arabidopsis thaliana, At3g04120; Same recombinant protein as m1, oxidised in vitro; also called oxidized GapC1; source: desalted before use; pre-treated with 0.5 mM H2O2 + 0.5 mM GSH

[3] = biological target: T1, reduced recombinant GapC1 (cytosolic …); assay: reflectance interferometry (RIf); GapC1 (or the control mCitrine) immobilised via NHS on a PEG surface; Trx-h3 injected at different concentrations; 20 mM HBS-buffer (100 mM NaCl, 0.01% Triton X-100, pH 7.5) with 2 mM DTT; KD from equilibrium binding signals by Scatchard plot

T1 sequence (P25858 whole entry): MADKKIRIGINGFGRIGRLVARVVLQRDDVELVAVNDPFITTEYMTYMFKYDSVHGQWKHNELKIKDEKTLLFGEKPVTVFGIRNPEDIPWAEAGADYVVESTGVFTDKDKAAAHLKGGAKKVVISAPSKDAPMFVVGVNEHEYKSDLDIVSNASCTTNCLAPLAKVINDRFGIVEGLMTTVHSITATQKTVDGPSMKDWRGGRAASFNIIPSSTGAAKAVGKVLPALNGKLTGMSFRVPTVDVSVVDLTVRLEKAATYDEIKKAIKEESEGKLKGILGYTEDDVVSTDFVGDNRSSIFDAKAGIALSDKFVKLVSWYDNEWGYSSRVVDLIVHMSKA
T2 sequence (P25858 whole entry): as above

| Kd [1] [nM] | Kd [2] [nM] | Kd [3] [nM] | Binder |
| --- | --- | --- | --- |
| 236 | 556 | – | recombinant voltage-dependent anion-selective channel VDAC3 from A. thaliana, reconstituted in a lipid bilayer (natural protein, UniProt Q9SMX3 1-274, looked up, VDAC3, mitochondrial outer membrane voltage-dependent anion-selective channel 3, Arabidopsis thaliana; cDNA cloned into pCold I with SacI and XbaI; Protein:lipid 1:1000 in DOPC; formed a polymer-supported membrane on the RIf chip; The tag is inferred from the vector; also called AtVDAC3) MVKGPGLYTEIGKKARDLLYRDYQGDQKFSVTTYSSTGVAITTTGTNKGSLFLGDVATQVKNNNFTADVKVSTDSSLLTTLTFDEPAPGLKVIVQAKLPDHKSGKAEVQYFHDYAGISTSVGFTATPIVNFSGVVGTNGLSLGTDVAYNTESGNFKHFNAGFNFTKDDLTASLILNDKGEKLNASYYQIVSPSTVVGAEISHNFTTKENAITVGTQHALDPLTTVKARVNNAGVANALIQHEWRPKSFFTVSGEVDSKAIDKSAKVGIALALKP |
| – | – | 40000 | recombinant thioredoxin Trx-h3 from A. thaliana (natural protein, UniProt Q42403 1-118, looked up, Thioredoxin h3 (Trx-h3), Arabidopsis thaliana) MAAEGEVIACHTVEDWTEKLKAANESKKLIVIDFTATWCPPCRFIAPVFADLAKKHLDVVFFKVDVDELNTVAEEFKVQAMPTFIFMKEGEIKETVVGAAKEEIIANLEKHKTVVAAA |
